Laboratory results as given in patent US20160243213A9.

Assays:
[1] = target: HPV-16 E7 wild type (E7WT) expressed by RMA-E7 transfectants (HPV-16) (UniProt P03129)
[2] = target: HPV-16 E7 wild type (E7WT) expressed by RMA-E7 transfectants (HPV-16) (UniProt P03129); remark: listed apart in the source

Row | Substance | 51Cr-release assay (after 1st in vitro restimulation), specific lysis [1] [%] | 51Cr-release assay (after 1st in vitro restimulation), Specific Lysis (%) [2] [%]
1 | in vitro restimulated spleen cells of C57BL/6 mice inoculated with the DNA vaccine pTHamp-E7SH (cells without a defined receptor) | 26 | 
2 | in vitro restimulated spleen cells of C57BL/6 mice inoculated with RPBLAs containing RX3-E7SH and incomplete Freund's adjuvant (cells without a defined receptor) |  | 29
3 | in vitro restimulated spleen cells of C57BL/6 mice inoculated with the empty plasmid pTHamp (cells without a defined receptor) |  | 8
4 | in vitro restimulated spleen cells of C57BL/6 mice inoculated with RPBLAs containing RX3-Gfp (cells without a defined receptor) | 12 | 
5 | in vitro restimulated spleen cells of C57BL/6 mice inoculated with RPBLAs containing RX3-E7SH (cells without a defined receptor) |  | 33
